Data from patent US20240083958A1, “G PROTEIN PEPTIDOMIMETICS” (VRIJE UNIVERSITEIT BRUSSEL, priority 2020, published 2024).
Like-named read-outs stand apart in the source and are kept apart here. Bridge positions count the residues as written; N and C are the ends. Square brackets hold non-standard residues; d marks the D form. Primed or numbered codes have the meaning given here. Azk = residue with azidated side chain, clicked to Pra; Pra′ = residue with alkynyl side chain, clicked to Azk; Lys(N3) = [N-]=[N+]=NCCCC[C@H](N)C(=O)O; R8 = C=CCCCCCC[C@@](C)(N)C(=O)O; Cha = N[C@@H](CC1CCCCC1)C(=O)O; R5 = C=CCCC[C@@](C)(N)C(=O)O; S5 = C=CCCC[C@](C)(N)C(=O)O; Pra = C#CC[C@H](N)C(=O)O

Columns and labels:
[1] = molecular target: dopamine 1 receptor (D1R) (Homo sapiens, UniProt P21728); assay: GPCR-radioligand binding assay (RLA) with dopamine 1 receptor (D1R), [3H]-SCH23390 as radiolabelled antagonist, A-77636 (agonist), in presence and absence of the peptidomimetic; details: Table 19; peptidomimetic at 10 μM; ratio IC50 D1R alone / IC50 D1R + peptidomimetic
dopamine 1 receptor (D1R) (Homo sapiens, UniProt P21728), sequence (P21728 whole entry): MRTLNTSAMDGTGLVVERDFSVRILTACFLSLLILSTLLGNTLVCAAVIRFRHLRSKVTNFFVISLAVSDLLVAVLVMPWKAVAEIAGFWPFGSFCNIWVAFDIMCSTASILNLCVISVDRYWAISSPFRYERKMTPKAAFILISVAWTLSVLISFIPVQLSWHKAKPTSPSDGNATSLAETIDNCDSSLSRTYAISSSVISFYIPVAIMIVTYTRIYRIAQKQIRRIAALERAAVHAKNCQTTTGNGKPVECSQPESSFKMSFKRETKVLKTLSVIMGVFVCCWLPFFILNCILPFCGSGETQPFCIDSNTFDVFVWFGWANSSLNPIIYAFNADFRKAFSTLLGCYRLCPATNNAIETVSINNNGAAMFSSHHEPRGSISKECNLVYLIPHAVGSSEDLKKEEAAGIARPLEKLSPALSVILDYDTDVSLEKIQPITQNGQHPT
Experimental: For the radioligand assays on D1R a similar buffer, as for β2AR, was used for the ligands, membrane extracts and peptides (+1% DMSO). The competition assay was performed with [^3H]-SCH23390 as radiolabelled antagonist, at a concentration of 2 nM. A ten-fold dilution series of the agonist, A-77636, was prepared to obtain a dose response curve, starting from 100 μM for the receptor alone and 10 μM in the presence of the peptidomimetics. After incubation, the samples were harvested into filter plates, pre-soaked with 0.5% polyethylenimine (PEI), and washed with ice cold washing buffer using the 96-well harvester. After drying in the oven during 1 h and the addition of scintillation liquid, the plates were placed in the MICROBETA® scintillation counter and incubated for 30 min in the dark before reading.
After the Microbeta scintillation counter, the experimental data was further analyzed using Graphpad Prism 6.0. After normalization of the raw data, a nonlinear regression was used to fit the data in a one-site binding model, with the total binding set as 100% and the non-specific binding between 0 and 5%. The IC50 values, obtained from the competition curves, were used to determine the shift for each peptide, which is the ratio of IC50 of the agonist test compound on the basal conformation (e.g. IC50 β2AR with no peptidomimetic) versus the active conformation (e.g. IC50 β2AR+peptidomimetic) of the receptor. For certain peptide analogues, a biphasic binding curve was observed and therefore fitted by a two-site model (nonlinear regression), resulting in two IC50 values (IC50Hi and IC50Lo) and a FractionHi, the fraction of receptors in the active state.
Peptidomimetics were screened using GPCR-radioligand binding assay (RLA) with dopamine 1 receptor (D1R) binding, using [^3H]-SCH23390 as radiolabelled antagonist, and increasing concentrations of A-77636 (agonist). The half maximal inhibitory concentration (IC50) represents the affinity of the agonist for the receptor. The selectivity is quantified by the shift. “[ ]” denotes cyclic peptides.

[2] = molecular target: T1, human β2AR (human, UniProt P07550 2-365); assay: cell-based or functional assay
[3] = molecular target: T1, human β2AR; assay: cell-based or functional assay; remark: listed apart in the source
[4] = molecular target: dopamine 1 receptor (D1R) (UniProt P21728 1-446, limits assumed); assay: cell-based or functional assay
dopamine 1 receptor (D1R) (UniProt P21728 1-446, limits assumed), sequence (P21728 whole entry): as above

[5] = molecular target: T1, human β2AR; assay: cell-based or functional assay; remark: listed apart in the source
[6] = molecular target: T1, human β2AR; assay: cell-based or functional assay; remark: listed apart in the source
[7] = molecular target: T1, human β2AR; assay: cell-based or functional assay; remark: listed apart in the source
[8] = molecular target: T1, human β2AR; assay: cell-based or functional assay; remark: listed apart in the source
[9] = molecular target: T1, human β2AR; assay: cell-based or functional assay; remark: listed apart in the source
[10] = molecular target: T1, human β2AR; assay: cell-based or functional assay; remark: listed apart in the source
[11] = molecular target: T1, human β2AR; assay: cell-based or functional assay; remark: listed apart in the source
[12] = molecular target: T1, human β2AR; assay: cell-based or functional assay; remark: listed apart in the source
[13] = molecular target: T1, human β2AR; assay: cell-based or functional assay; remark: listed apart in the source

Ac-FNDCRDIIQRMHLRQYEChaL-OH (FNDCRDIIQRMHLRQYEXL; HELM PEPTIDE1{[ac].F.N.D.C.R.D.I.I.Q.R.M.H.L.R.Q.Y.E.[Cha].L}$$$$V2.0; SMILES CC[C@H](C)[C@H](NC(=O)[C@H](CC(=O)O)NC(=O)[C@H](CCCNC(=N)N)NC(=O)[C@H](CS)NC(=O)[C@H](CC(=O)O)NC(=O)[C@H](CC(N)=O)NC(=O)[C@H](Cc1ccccc1)NC(C)=O)C(=O)N[C@H](C(=O)N[C@@H](CCC(N)=O)C(=O)N[C@@H](CCCNC(=N)N)C(=O)N[C@@H](CCSC)C(=O)N[C@@H](Cc1c[nH]cn1)C(=O)N[C@@H](CC(C)C)C(=O)N[C@@H](CCCNC(=N)N)C(=O)N[C@@H](CCC(N)=O)C(=O)N[C@@H](Cc1ccc(O)cc1)C(=O)N[C@@H](CCC(=O)O)C(=O)N[C@@H](CC1CCCCC1)C(=O)N[C@@H](CC(C)C)C(=O)O)[C@@H](C)CC) [compound 63]
Shift [1]: 24

Ac-KKKFN[PraCRDAzk]IQRMHLRQYELL-OH (Ac-KKKFN[Pra]CRD[Lys(N3)]IQRMHLRQYELL-OH; triazole 6-10) [compound 42]
Shift [1]: 32

B1: compound 42 (peptide)
peptide: Ac-KKKFN[Pra′]CRD[Azk]IQRMHLRQYELL-OH
modifications: triazole 6-10
IC50 (nM) of isoproterenol, [3H]-DHA RLA, peptidomimetic present [2]: 27.4 nM | Shift [2]: 42 | Shift (averaged) [3]: 49 | IC50 (nM) of A-77636, [3H]-SCH23390 RLA, compound 42 at 10 µM [4]: 0.41 nM

B2: compound 51 (peptide)
peptide: Ac-KKKFN[Pra′]CRD[Azk]IQRMHLRQYE[Cha]L-OH
modifications: triazole 6-10
IC50 (nM) of isoproterenol, [3H]-DHA RLA, compound 51 at 1 µM [5]: 56.4 nM | IC50 (nM) of isoproterenol, [3H]-DHA RLA, compound 51 at 10 µM [5]: 6.7 nM | IC50 (nM) of isoproterenol, [3H]-DHA RLA, compound 51 at 50 µM [5]: 6.9 nM | IC50 (nM) of isoproterenol, [3H]-DHA RLA, compound 51 at 100 µM [5]: 3.4 nM | Fraction HI (%) [6]: 83% | IC50 (nM) of isoproterenol, [3H]-DHA RLA, peptidomimetic present [6]: 2.8 nM | Shift [6]: 580 | Shift (averaged) [3]: 400 | IC50 (nM) of A-77636, [3H]-SCH23390 RLA, compound 51 at 10 µM [4]: 0.25 nM

B3: compound 7 (peptide)
peptide: H-FNDCRD[S5]IQR[S5]HLRQYELL-OH
modifications: staple 7-11
SMILES: CC[C@H](C)[C@@H]1NC(=O)[C@@](C)(NC(=O)[C@H](CC(=O)O)NC(=O)[C@H](CCCNC(=N)N)NC(=O)[C@H](CS)NC(=O)[C@H](CC(=O)O)NC(=O)[C@H](CC(N)=O)NC(=O)[C@@H](N)Cc2ccccc2)CCCC=CCCC[C@@](C)(C(=O)N[C@@H](Cc2c[nH]cn2)C(=O)N[C@@H](CC(C)C)C(=O)N[C@@H](CCCNC(=N)N)C(=O)N[C@@H](CCC(N)=O)C(=O)N[C@@H](Cc2ccc(O)cc2)C(=O)N[C@@H](CCC(=O)O)C(=O)N[C@@H](CC(C)C)C(=O)N[C@@H](CC(C)C)C(=O)O)NC(=O)[C@H](CCCNC(=N)N)NC(=O)[C@H](CCC(N)=O)NC1=O
IC50 (nM) of isoproterenol, [3H]-DHA RLA, peptidomimetic present [7]: 417 nM | Shift [7]: 2 | Shift (averaged) [8]: 2

B4: compound 8 (peptide)
peptide: Ac-FNDCRD[S5]IQR[S5]HLRQYELL-OH
modifications: staple 7-11
IC50 (nM) of isoproterenol, [3H]-DHA RLA, peptidomimetic present [7]: 373 nM | Shift [7]: 2 | Shift (averaged) [8]: 3

B5: compound 9 (peptide)
peptide: FNDCRDXIQRXHLRQYELL
HELM: PEPTIDE1{[ac].F.N.D.C.R.D.[C#CC[C@H](N[*:1])C(=O)[*:2]].I.Q.R.[[N-]=[N+]=NCCCC[C@H](N[*:1])C(=O)[*:2]].H.L.R.Q.Y.E.L.L}$$$$V2.0
SMILES: C#CC[C@H](NC(=O)[C@H](CC(=O)O)NC(=O)[C@H](CCCNC(=N)N)NC(=O)[C@H](CS)NC(=O)[C@H](CC(=O)O)NC(=O)[C@H](CC(N)=O)NC(=O)[C@H](Cc1ccccc1)NC(C)=O)C(=O)N[C@H](C(=O)N[C@@H](CCC(N)=O)C(=O)N[C@@H](CCCNC(=N)N)C(=O)N[C@@H](CCCCN=[N+]=[N-])C(=O)N[C@@H](Cc1c[nH]cn1)C(=O)N[C@@H](CC(C)C)C(=O)N[C@@H](CCCNC(=N)N)C(=O)N[C@@H](CCC(N)=O)C(=O)N[C@@H](Cc1ccc(O)cc1)C(=O)N[C@@H](CCC(=O)O)C(=O)N[C@@H](CC(C)C)C(=O)N[C@@H](CC(C)C)C(=O)O)[C@@H](C)CC
IC50 (nM) of isoproterenol, [3H]-DHA RLA, peptidomimetic present [9]: 211 nM | Shift [9]: 4 | Shift (averaged) [8]: 4

B6: compound 10 (peptide)
peptide: H-FNDCRD[Pra′]IQR[Azk]HLRQYELL-OH
modifications: triazole 7-11
IC50 (nM) of isoproterenol, [3H]-DHA RLA, peptidomimetic present [9]: 122 nM | Shift [9]: 7 | Shift (averaged) [8]: 7

B7: compound 11 (peptide)
peptide: Ac-FNDCRD[Pra′]IQR[Azk]HLRQYELL-OH
modifications: triazole 7-11
IC50 (nM) of isoproterenol, [3H]-DHA RLA, peptidomimetic present [9]: 116 nM | Shift [9]: 7 | Shift (averaged) [8]: 7

B8: compound 13 (peptide)
peptide: Ac-FNDCRDIIQR[R5]HL[S5]QYELL-OH
modifications: staple 11-14
SMILES: CC[C@H](C)[C@H](NC(=O)[C@H](CC(=O)O)NC(=O)[C@H](CCCNC(=N)N)NC(=O)[C@H](CS)NC(=O)[C@H](CC(=O)O)NC(=O)[C@H](CC(N)=O)NC(=O)[C@H](Cc1ccccc1)NC(C)=O)C(=O)N[C@H](C(=O)N[C@@H](CCC(N)=O)C(=O)N[C@@H](CCCNC(=N)N)C(=O)N[C@]1(C)CCCC=CCCC[C@@](C)(C(=O)N[C@@H](CCC(N)=O)C(=O)N[C@@H](Cc2ccc(O)cc2)C(=O)N[C@@H](CCC(=O)O)C(=O)N[C@@H](CC(C)C)C(=O)N[C@@H](CC(C)C)C(=O)O)NC(=O)[C@H](CC(C)C)NC(=O)[C@H](Cc2c[nH]cn2)NC1=O)[C@@H](C)CC
IC50 (nM) of isoproterenol, [3H]-DHA RLA, peptidomimetic present [10]: 312 nM | Shift [10]: 3 | Shift (averaged) [8]: 3

B9: compound 14 (peptide)
peptide: Ac-FNDCRD[R8]IQRMHL[S5]QYELL-OH
modifications: staple 7-14
SMILES: CC[C@H](C)[C@@H]1NC(=O)[C@](C)(NC(=O)[C@H](CC(=O)O)NC(=O)[C@H](CCCNC(=N)N)NC(=O)[C@H](CS)NC(=O)[C@H](CC(=O)O)NC(=O)[C@H](CC(N)=O)NC(=O)[C@H](Cc2ccccc2)NC(C)=O)CCCCCCC=CCCC[C@@](C)(C(=O)N[C@@H](CCC(N)=O)C(=O)N[C@@H](Cc2ccc(O)cc2)C(=O)N[C@@H](CCC(=O)O)C(=O)N[C@@H](CC(C)C)C(=O)N[C@@H](CC(C)C)C(=O)O)NC(=O)[C@H](CC(C)C)NC(=O)[C@H](Cc2c[nH]cn2)NC(=O)[C@H](CCSC)NC(=O)[C@H](CCCNC(=N)N)NC(=O)[C@H](CCC(N)=O)NC1=O
IC50 (nM) of isoproterenol, [3H]-DHA RLA, peptidomimetic present [10]: 433 nM | Shift [10]: 2 | Shift (averaged) [8]: 2

B10: compound 63 (peptide)
peptide: FNDCRDIIQRMHLRQYEXL
HELM: PEPTIDE1{[ac].F.N.D.C.R.D.I.I.Q.R.M.H.L.R.Q.Y.E.[Cha].L}$$$$V2.0
SMILES: CC[C@H](C)[C@H](NC(=O)[C@H](CC(=O)O)NC(=O)[C@H](CCCNC(=N)N)NC(=O)[C@H](CS)NC(=O)[C@H](CC(=O)O)NC(=O)[C@H](CC(N)=O)NC(=O)[C@H](Cc1ccccc1)NC(C)=O)C(=O)N[C@H](C(=O)N[C@@H](CCC(N)=O)C(=O)N[C@@H](CCCNC(=N)N)C(=O)N[C@@H](CCSC)C(=O)N[C@@H](Cc1c[nH]cn1)C(=O)N[C@@H](CC(C)C)C(=O)N[C@@H](CCCNC(=N)N)C(=O)N[C@@H](CCC(N)=O)C(=O)N[C@@H](Cc1ccc(O)cc1)C(=O)N[C@@H](CCC(=O)O)C(=O)N[C@@H](CC1CCCCC1)C(=O)N[C@@H](CC(C)C)C(=O)O)[C@@H](C)CC
IC50 (nM) of isoproterenol, [3H]-DHA RLA, peptidomimetic present [11]: 6.88 nM | Shift [11]: 118 | Fraction HI (%) [12]: 81% | IC50 (nM) of isoproterenol, [3H]-DHA RLA, peptidomimetic present [12]: 7.3 nM | Shift [12]: 217 | IC50 (nM) of isoproterenol, [3H]-DHA RLA, peptidomimetic present [13]: 3.96 nM | Shift [13]: 198 | Shift (averaged) [3]: 203 | IC50 (nM) of A-77636, [3H]-SCH23390 RLA, compound 63 at 10 µM [4]: 0.55 nM
